These results are taken from publication PMC5114558, “Reader domain specificity and lysine demethylase-4 family function” (Nature Communications, 2016).

Common to all, as to assay: fluorescence polarisation; fluorescein-labelled histone peptide 3 nM, KDM4 DTD titrated 0.1-100 μM; 30 mM HEPES, 150 mM NaCl pH 7.4, 0.01% Triton X-100
For assay [1], the target named is H3K23me3R26me2a peptide, fluorescein-labelled.
Assay [2] addresses H3K23me2 peptide (dimethylated H3K23), fluorescein-labelled.
Assay [3] concerns the target H3 (17-32) K23me3 peptide, fluorescein-labelled (UniProt P68431).
Assay [4] addresses H3T22phK23me3 peptide, fluorescein-labelled.
Assay [5] addresses H3K23me1 peptide (monomethylated H3K23), fluorescein-labelled.
The target of assay [6] is H3K23me3R26A peptide, fluorescein-labelled.

In the case of “KDM4A double tudor domain (KDM4A-DTD), HaloTag-tagged, wild type (from UniProt O75164 895-1011) (domain or fragment)”, the Kd in assay [1] came to 8.7 µM; in assay [2], 9.06 µM; in assay [3] it was 2.2 µM; in assay [4] it was 83.7 µM; in assay [5], 98.5 µM; in assay [6] it was 32.3 µM.

For the substance “KDM4B double tudor domain (KDM4B-DTD), HaloTag-tagged, wild type (from UniProt O94953 917-1031) (domain or fragment)”, the Kd in assay [3] came out at 10.3 µM.
